Patent US20040181033A1 (Amgen, published 2004)

T1: recombinant mature myostatin (human, UniProt O14793 267-375)
T1 sequence (looked up): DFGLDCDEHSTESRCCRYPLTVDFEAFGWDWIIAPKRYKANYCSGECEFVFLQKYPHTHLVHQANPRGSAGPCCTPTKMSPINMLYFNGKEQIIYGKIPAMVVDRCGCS


Key:
[1] = target: T1, recombinant mature myostatin; experiment: cell-based or functional assay
[2] = target: T1, recombinant mature myostatin; experiment: cell-based or functional assay; remark: listed apart in the source

Binder	IC50 (C2C12 pMARE-luc) [1] [nM]	IC50 (read off the curve) [2] [µM]
recombinant human activin receptor IIB/Fc chimera (Fc fusion, UniProt Q13705 19-134, looked up, not shown: a dimerising Fc or GST) SGRGEAETRECIYYNANWELERTNQSGLERCEGEQDKRLHCYASWRNSSGTIELVKKGCWLDDFNCYDRQECVATEENPQVYFCCCEGNFCNERFTHLPEAGGPEVTYEPPPTAPT	~83	
QGHCTRWPWMCPPY [TN8-19 peptide]		~20
